{
  "source": "IntAct's records for PubMed 21577200",
  "molecular_target": "spop_human SPOP (UniProt O43791)",
  "sequence (O43791 whole entry)": "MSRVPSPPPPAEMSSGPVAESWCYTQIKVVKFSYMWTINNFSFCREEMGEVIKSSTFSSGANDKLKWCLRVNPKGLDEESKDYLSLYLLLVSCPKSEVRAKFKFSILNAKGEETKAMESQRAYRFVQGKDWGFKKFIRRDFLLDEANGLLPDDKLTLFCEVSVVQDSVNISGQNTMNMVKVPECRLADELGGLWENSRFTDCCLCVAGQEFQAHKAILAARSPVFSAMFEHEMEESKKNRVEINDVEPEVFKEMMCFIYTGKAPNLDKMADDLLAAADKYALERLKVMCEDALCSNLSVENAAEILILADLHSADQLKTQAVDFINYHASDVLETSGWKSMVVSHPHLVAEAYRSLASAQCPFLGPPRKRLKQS",
  "data": [
    {"substance": "Nuclear receptor coactivator 3 (Homo sapiens), Q9Y6Q9 S101A;S102A", "values": [
      {"measurement": "effect of a mutation on the interaction", "value": "disrupting interaction"}
    ]},
    {"substance": "Nuclear receptor coactivator 3 (Homo sapiens), Q9Y6Q9 S102A", "values": [
      {"measurement": "effect of a mutation on the interaction", "value": "disrupting interaction"}
    ]}
  ]
}
